# Reference: patent publication US20240050600A1, “Radiopharmaceuticals, uses thereof, and methods for the production thereof” (priority 2020, published 2024)
# Assay: in vivo
# Parameters: species or system Balb/c nude mice
# Conditions: male, Balb/c nude, mouse, iv, total radioactivity
# Source text: Healthy male Balb/c nude mice (˜18 g) from 8 weeks old were obtained from the ARC and used for this study. Mice were imported into the CAI animal holding facility and monitored for 1 week prior to the study in order to acclimatise to the environment prior to injection of cells. All animals were provided with free access to food and water before and during the imaging experiments which were approved by the University of Queensland Animal Ethics Committee (Approval #AIBN/CAI/105/19/ARC/NHMRC).
# 8-week-old male Balb/c nude mice were injected (27 G needle) subcutaneously with PC3 ([…]) cells in 50 μL of 50:50 matrigel and cells in phosphate buffered saline into the right flank of each mouse. There was no evidence of ulceration at the time of dosing; the animals were closely monitored and remained in good condition apart from the growth of tumours. […] Labelled peptides were injected via the tail vein (29 G needle; ˜2-3 MBq) and then mice were imaged using the Siemens Inveon PET-CT instrument at the various timepoints.
# The injection syringe was filled with the radioisotope solution (approximately 150 μL) and the activity in the syringe was measured using a dose calibrator (Capintec CRC-25) with a calibration factor of 35. The activity left in the syringe after the tail vein injection was measured using the same dose calibrator and the total volume injected in each mouse was calculated.
# Organs were excised at 24 hours, with the percentage of injected dose of the administered compound determined by ex vivo gamma counting (Table 2). Values are averages across 4 mice.
# [1] = Percentage of injected dose in Blood
# [2] = Percentage of injected dose in GI Tract
# [3] = Percentage of injected dose in Heart
# [4] = Percentage of injected dose in Kidneys
# [5] = Percentage of injected dose in Liver
# [6] = Percentage of injected dose in Lungs
# [7] = Percentage of injected dose in Pancreas
# [8] = Percentage of injected dose in Spleen
# [9] = Percentage of injected dose in Tail
# [10] = Percentage of injected dose in Tumour
SMILES,tissue uptake at 24 h [1] [%ID/g],tissue uptake at 24 h [2] [%ID/g],tissue uptake at 24 h [3] [%ID/g],tissue uptake at 24 h [4] [%ID/g],tissue uptake at 24 h [5] [%ID/g],tissue uptake at 24 h [6] [%ID/g],tissue uptake at 24 h [7] [%ID/g],tissue uptake at 24 h [8] [%ID/g],tissue uptake at 24 h [9] [%ID/g],tissue uptake at 24 h [10] [%ID/g]
CC(C)C[C@H](NC(=O)C[C@H](O)[C@H](CC(C)C)NC(=O)[C@H](Cc1c[nH]cn1)NC(=O)CNC(=O)[C@@H](NC(=O)[C@H](C)NC(=O)[C@H](Cc1c[nH]c2ccccc12)NC(=O)[C@H](CCC(N)=O)NC(=O)[C@@H](Cc1ccccc1)NC(=O)CCOCCOCCOCCOCCNC(=O)CCCC(=O)NC12CNCCNCC(N)(CNCCNC1)CNCCNC2)C(C)C)C(N)=O [Sar(BBN)],0.13 ± 0.04,0.3 ± 0.07,0.24 ± 0.02,3.55 ± 0.79,1.52 ± 0.18,0.31 ± 0.08,0.23 ± 0.02,0.38 ± 0.06,0.56 ± 0.87,4.09 ± 0.52
CC(C)CC(NC(=O)CC(O)C(CC(C)C)NC(=O)C(Cc1c[nH]cn1)NC(=O)CNC(=O)C(NC(=O)C(C)NC(=O)C(Cc1c[nH]c2ccccc12)NC(=O)C(CCC(N)=O)NC(=O)C(Cc1ccccc1)NC(=O)CCOCCOCCOCCOCCNC(=O)CCCC(=O)NC12CNCCNCC(NC(=O)CCCC(=O)NCCOCCOCCOCCOCCC(=O)NC(Cc3ccccc3)C(=O)NC(CCC(N)=O)C(=O)NC(Cc3c[nH]c4ccccc34)C(=O)NC(C)C(=O)NC(C(=O)NCC(=O)NC(Cc3c[nH]cn3)C(=O)NC(CC(C)C)C(O)CC(=O)NC(CC(C)C)C(N)=O)C(C)C)(CNCCNC1)CNCCNC2)C(C)C)C(N)=O (stereo not drawn) [Sar(BBN)2],0.1 ± 0.05,0.44 ± 0.04,0.21 ± 0.03,6.81 ± 0.67,16.8 ± 1.55,0.36 ± 0.12,0.84 ± 0.06,1.47 ± 0.2,0.28 ± 0.05,2.13 ± 0.86
CC(C)C[C@H](NC(=O)C[C@H](O)[C@H](CC(C)C)NC(=O)[C@H](Cc1c[nH]cn1)NC(=O)CNC(=O)[C@@H](NC(=O)[C@H](C)NC(=O)[C@H](Cc1c[nH]c2ccccc12)NC(=O)[C@H](CCC(N)=O)NC(=O)[C@@H](Cc1ccccc1)NC(=O)CCOCCOCCOCCOCCNC(=O)CCCC(=O)NC12CNCCNCC(NC(=O)CCCC(=O)NC(CCCCNC(=O)CCCc3ccc(I)cc3)C(=O)O)(CNCCNC1)CNCCNC2)C(C)C)C(N)=O (stereo partly drawn) [Sar(ABG)(BBN)],7.22 ± 0.79,1.93 ± 0.46,3.1 ± 0.53,4.29 ± 0.54,2.96 ± 0.3,4.85 ± 0.93,6 ± 1.17,2.68 ± 0.33,2.06 ± 0.3,22.3 ± 11
